Test results: the RNAGym collection of RNA variant scans (doi:10.1093/molbev/msab373)

B1: Azoarcus group I ribozyme (parent)
chain: GUGCCUUGCGCCGGGAAACCACGCAAGGGAUGGUGUCAAAUUCGGCGAAACCUAAGCGCCCGCCCGGGCGUAUGGCAACGCCGAGCCAAGCUUCGGCGCCUGCGCCGAUGAAGGUGUAGAGACUAGACGGCACCCACCUAAGGCAAACGCUAUGGUGAAGGCAUAGUCCAGGGAGUGGCGAAAGUCACACAAACCGG

Variants of: B1
Assay: reverse-splicing fitness (ratio to wild type); higher = more active; in vitro selection; Mg2+ level not given
Outline: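 An in vitro group I ribozyme library with randomized positions was T7-transcribed and gel-purified. In triplicate, 10 pmol RNA in EPPS pH 7.5 was reacted with 50 pmoles of a 30-nt RNA substrate for 1 h at 37 °C across several added MgCl2 levels (1–48 mM), then stopped with EDTA. Products were reverse transcribed from a substrate-complementary primer, PCR-amplified and sequenced (HiSeq 4000). Fitness is a variant's read proportion after selection over that before, normalised to wild type.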
With C82G A111G A120U A145U C150G C169A the reverse-splicing fitness was 0.00331. Work on C82G A111G A120U A145U C150G C169U yielded a reverse-splicing fitness of 0.00254. Work on C82G A111G A120U A145U C150G C169G yielded a reverse-splicing fitness of 0.003. With C82G A111G A120U A145U C150A C169U U176G the reverse-splicing fitness was 0.00215. Variant C82G A111G A120U A145U C150A C169U U176C has a reverse-splicing fitness of 0.0029. For C82G A111G A120U A145U C150A C169U U176A, the reverse-splicing fitness was 0.00305. C82G A111G A120U A145U C150G U176C gave a reverse-splicing fitness of 0.00556. With C82G A111G A120U A145U C150G U176G the reverse-splicing fitness was 0.00264. For C82G A111G A120U A145U C150G U176A, the reverse-splicing fitness was 0.00457. With C82G A111G A120G A145U C150G U176A the reverse-splicing fitness was 0.00801. Work on C82G A111G A120G A145U C150G U176G yielded a reverse-splicing fitness of 0.00436. With C82G A111G A120G A145U C150G U176C the reverse-splicing fitness was 0.0158. Work on C82G A111G A120U A145G C150G C169U U176G yielded a reverse-splicing fitness of 0.00375. In the case of C82G A111G A120U A145G C150G C169U U176A, the reverse-splicing fitness is reported as 0.00708. C82G A111G A120U A145G C150G C169U U176C showed a reverse-splicing fitness of 0.009. In the case of C82G A111G A120U A145G C150U U176G, the reverse-splicing fitness is reported as 0.00429. In the case of C82G A111G A120U A145G C150U U176C, the reverse-splicing fitness is reported as 0.0196. With C82G A111G A120U A145G C150U U176A the reverse-splicing fitness was 0.0125. Work on C82G A111G A120G A145U C150G C169U U176A yielded a reverse-splicing fitness of 0.0117. For C82G A111G A120G A145U C150G C169U U176C, the reverse-splicing fitness was 0.0149. C82G A111G A120G A145U C150G C169U U176G gave a reverse-splicing fitness of 0.00523. C82G A111G A120G A145U C150U C169U U176A showed a reverse-splicing fitness of 0.0186. C82G A111G A120G A145U C150U C169U U176G gave a reverse-splicing fitness of 0.00452. C82G A111G A120G A145U C150U C169U U176C gave a reverse-splicing fitness of 0.0182. In the case of C82G A111G A120G A145U C150U C169A U176G, the reverse-splicing fitness is reported as 0.00619. With C82G A111G A120G A145U C150U C169A U176A the reverse-splicing fitness was 0.0154. C82G A111G A120G A145U C150U C169A U176C showed a reverse-splicing fitness of 0.0159. Variant C82G A111G A120G A145U C150A C169U U176G has a reverse-splicing fitness of 0.00582. C82G A111G A120G A145U C150A C169U U176A gave a reverse-splicing fitness of 0.0196. Variant C82G A111G A120G A145U C150A C169U U176C has a reverse-splicing fitness of 0.0177. C82G A111G A120U C150A U176A showed a reverse-splicing fitness of 0.0074. Variant C82G A111G A120U C150A U176G has a reverse-splicing fitness of 0.00368. Work on C82G A111G A120U C150A U176C yielded a reverse-splicing fitness of 0.00806. C82G A111G A120U A145G C150G U176C showed a reverse-splicing fitness of 0.00834. Variant C82G A111G A120U A145G C150G U176G has a reverse-splicing fitness of 0.00375. In the case of C82G A111G A120U A145G C150G U176A, the reverse-splicing fitness is reported as 0.00561. In the case of C82G A111G A120G A145U C150A C169G, the reverse-splicing fitness is reported as 0.00924. In the case of C82G A111G A120G A145U C150A C169U, the reverse-splicing fitness is reported as 0.00794. In the case of C82G A111G A120G A145U C150A C169A, the reverse-splicing fitness is reported as 0.0096. C82G A111G A120U A145U C150G C169U U176G showed a reverse-splicing fitness of 0.00239. C82G A111G A120U A145U C150G C169U U176A showed a reverse-splicing fitness of 0.00283. C82G A111G A120U A145U C150G C169U U176C showed a reverse-splicing fitness of 0.00309. Variant C82G A111G A120G C169G U176C has a reverse-splicing fitness of 0.0232. C82G A111G A120G C169G U176A gave a reverse-splicing fitness of 0.0194. With C82G A111G A120G C169G U176G the reverse-splicing fitness was 0.00487. With C82G A111G A120G C150U U176A the reverse-splicing fitness was 0.012. With C82G A111G A120G C150U U176G the reverse-splicing fitness was 0.00986. C82G A111G A120G C150U U176C showed a reverse-splicing fitness of 0.0211. In the case of C82G A111G A120G C150U C169G U176A, the reverse-splicing fitness is reported as 0.0182. With C82G A111G A120G C150U C169G U176G the reverse-splicing fitness was 0.00549. Work on C82G A111G A120G C150U C169G U176C yielded a reverse-splicing fitness of 0.0206. With C82G A111G A120U A145U C150U C169U the reverse-splicing fitness was 0.00393. C82G A111G A120U A145U C150U C169G gave a reverse-splicing fitness of 0.00324. For C82G A111G A120U A145U C150U C169A, the reverse-splicing fitness was 0.00289. C82G A111G A120U A145C C150A U176G gave a reverse-splicing fitness of 0.00169. C82G A111G A120U A145C C150A U176A showed a reverse-splicing fitness of 0.00245. Variant C82G A111G A120U A145C C150A U176C has a reverse-splicing fitness of 0.00344. C82G A111G A120G A145U C150G C169G showed a reverse-splicing fitness of 0.00827. C82G A111G A120G A145U C150G C169A gave a reverse-splicing fitness of 0.01. C82G A111G A120G A145U C150G C169U gave a reverse-splicing fitness of 0.00943. With C82G A111G A120U A145U C169G the reverse-splicing fitness was 0.00363. C82G A111G A120U A145U C169U gave a reverse-splicing fitness of 0.00451. In the case of C82G A111G A120U A145U C169A, the reverse-splicing fitness is reported as 0.00239. Variant C82G A111G A120U A145G C150A C169A U176A has a reverse-splicing fitness of 0.00843. Variant C82G A111G A120U A145G C150A C169A U176G has a reverse-splicing fitness of 0.00251. C82G A111G A120U A145G C150A C169A U176C showed a reverse-splicing fitness of 0.00503. C82G A111G A120G C150A C169G gave a reverse-splicing fitness of 0.0105. Variant C82G A111G A120G C150A C169U has a reverse-splicing fitness of 0.00799. In the case of C82G A111G A120G C150A C169A, the reverse-splicing fitness is reported as 0.0123. For C82G A111G A120U A145G C169G U176G, the reverse-splicing fitness was 0.00184. Work on C82G A111G A120U A145G C169G U176C yielded a reverse-splicing fitness of 0.00531. Variant C82G A111G A120U A145G C169G U176A has a reverse-splicing fitness of 0.00491. With C82G A111G A120G A145U C150U C169G U176C the reverse-splicing fitness was 0.0179. C82G A111G A120G A145U C150U C169G U176G gave a reverse-splicing fitness of 0.00518. C82G A111G A120G A145U C150U C169G U176A gave a reverse-splicing fitness of 0.0161. Work on C82G A111G A120G C150G U176A yielded a reverse-splicing fitness of 0.0085. For C82G A111G A120G C150G U176G, the reverse-splicing fitness was 0.00387. With C82G A111G A120G C150G U176C the reverse-splicing fitness was 0.0157. Variant C82G A111G A120U A145U C150A C169A has a reverse-splicing fitness of 0.00193. In the case of C82G A111G A120U A145U C150A C169G, the reverse-splicing fitness is reported as 0.0027. For C82G A111G A120U A145U C150A C169U, the reverse-splicing fitness was 0.0024. C82G A111G A120G C150U C169U U176G showed a reverse-splicing fitness of 0.00864. With C82G A111G A120G C150U C169U U176A the reverse-splicing fitness was 0.0189. In the case of C82G A111G A120G C150U C169U U176C, the reverse-splicing fitness is reported as 0.0174.
